This series concerns the molecule itself. The series can be described thus: detergent-resistant band of doubled size on SDS-PAGE and western blot. On the technique in general: A western blot detects proteins with antibodies after separation by electrophoresis.

The source of these data is publication doi:10.1101/2020.04.03.023861 (bioRxiv, 2020).

B1: TMEM70-FLAG (natural protein, human, UniProt Q9BUB7 82-260, looked up)
chain: LNTPSDKSEDGRLIYTGNMARAVFGVKCFSYSTSLIGLTFLPYIFTQNNAISESVPLPIQIIFYGIMGSFTVITPVLLHFITKGYVIRLYHEATTDTYKAITYNAMLAETSTVFHQNDVKIPDAKHVFTTFYAKTKSLLVNPVLFPNREDYIHLMGYDKEEFILYMEETSEEKRHKDDK
For the protein B1, the stoichiometry N (commonly a count of units in the complex or per binding partner) turned out to be 2.
